These results are taken from US20220411491A1 (Hoffmann-La Roche, published 2022).

To fix the notation:
B1: P1AE5733 (antibody, V domains shown)
VH: EVQLVESGGGLVQPGRSLKLSCAASGFSFSNYGMAWVRQAATKGLEWVASISTGGGNTYYRDSVKGRFIVSRDNAKNTQYLQMDSLRSEDTATYYCTRHDRGGLYWGQGVMVTVSS
VL: DIVMTQAPLSVSVTPGESASISCRSSKSLLHSNGITYVYWYFQKPGKSPQVLIYRMSNLASGVPDRFSGSGSETDFTLKISRVEAEDVGIYHCGQLLENPYTFGAGTELELK
B2: P1AE5762 (antibody, V domains shown)
VH: EVQLVESGGGLVQPGGSLRLSCAASGFSFSNYGMAWVRQAPGKGLEWVASISTGGGNTYYADSVKGRFTISRDNAKNTLYLQMNSLRAEDTAVYYCTRHDRGGLYWGQGTMVTVSS
VL: DIVMTQSPLSLPVTPGEPASISCRSSKSLLHSNGITYVYWYLQKPGQSPQLLIYRMSNRASGVPDRFSGSGSGTDFTLKISRVEAEDVGVYHCGQLLENPYTFGQGTKLEIK
B3: P1AE5743 (antibody, V domains shown)
VH: EVQLVESGGGVVQPGRSLRLSCAASGFSFSNYGMAWVRQAPGKGLEWVASISTGGGNTYYRDSVKGRFTISRDNAKNTLYLQMNSLRAEDTAVYYCTRHDRGGLYWGQGTMVTVSS
VL: EIVLTQSPGTLSLSPGERATLSCRASKSLLHSNGITYVYWYQQKPGQAPRLLIYRMSNLASGIPDRFSGSGSGTDFTLTISRLEPEDFAVYHCGQLLENPYTFGQGTKLEIK
B4: P1AE5742 (antibody, V domains shown)
VH: EVQLVESGGGVVQPGRSLRLSCAASGFSFSNYGMAWVRQAPGKGLEWVASISTGGGNTYYRDSVKGRFTISRDNAKNTLYLQMNSLRAEDTAVYYCTRHDRGGLYWGQGTMVTVSS
VL: DIVMTQSPDSLAVSLGERATINCKSSKSLLHSNGITYVYWYQQKPGQPPKLLIYRMSNLASGVPDRFSGSGSGTDFTLTISSLQAEDVAVYHCGQLLENPYTFGQGTKLEIK
B5: P1AE5749 (antibody, V domains shown)
VH: QVQLVESGGGVVQPGRSLRLSCAASGFSFSNYGMAWVRQAPGKGLEWVASISTGGGNTYYADSVKGRFTISRDNSKNTLYLQMNSLRAEDTAVYYCTRHDRGGLYWGQGTMVTVSS
VL: EIVLTQSPGTLSLSPGERATLSCRASKSLLHSNGITYVYWYQQKPGQAPRLLIYRMSNLASGIPDRFSGSGSGTDFTLTISRLEPEDFAVYHCGQLLENPYTFGQGTKLEIK
B6: P1AE5738 (antibody, V domains shown)
VH: QVQLVESGGGVVQPGRSLRLSCAASGFSFSNYGMAWVRQAPGKGLEWVASISTGGGNTYYRDSVKGRFTISRDNSKNTLYLQMNSLRAEDTAVYYCTRHDRGGLYWGQGTMVTVSS
VL: EIVLTQSPGTLSLSPGERATLSCRASKSLLHSNGITYVYWYQQKPGQAPRLLIYRMSNLASGIPDRFSGSGSGTDFTLTISRLEPEDFAVYHCGQLLENPYTFGQGTKLEIK
B7: P1AE5747 (antibody, V domains shown)
VH: QVQLVESGGGVVQPGRSLRLSCAASGFSFSNYGMAWVRQAPGKGLEWVASISTGGGNTYYADSVKGRFTISRDNSKNTLYLQMNSLRAEDTAVYYCTRHDRGGLYWGQGTMVTVSS
VL: DIVMTQSPDSLAVSLGERATINCKSSKSLLHSNGITYVYWYQQKPGQPPKLLIYRMSNLASGVPDRFSGSGSGTDFTLTISSLQAEDVAVYHCGQLLENPYTFGQGTKLEIK
B8: P1AE5737 (antibody, V domains shown)
VH: QVQLVESGGGVVQPGRSLRLSCAASGFSFSNYGMAWVRQAPGKGLEWVASISTGGGNTYYRDSVKGRFTISRDNSKNTLYLQMNSLRAEDTAVYYCTRHDRGGLYWGQGTMVTVSS
VL: DIVMTQSPDSLAVSLGERATINCKSSKSLLHSNGITYVYWYQQKPGQPPKLLIYRMSNLASGVPDRFSGSGSGTDFTLTISSLQAEDVAVYHCGQLLENPYTFGQGTKLEIK
B9: P1AE5759 (antibody, V domains shown)
VH: EVQLVESGGGLVQPGGSLRLSCAASGFSFSNYGMAWVRQAPGKGLEWVASISTGGGNTYYRDSVKGRFTISRDNAKNTLYLQMNSLRAEDTAVYYCTRHDRGGLYWGQGTMVTVSS
VL: EIVLTQSPGTLSLSPGERATLSCRASKSLLHSNGITYVYWYQQKPGQAPRLLIYRMSNLASGIPDRFSGSGSGTDFTLTISRLEPEDFAVYHCGQLLENPYTFGQGTKLEIK
B10: P1AE5763 (antibody, V domains shown)
VH: EVQLVESGGGLVQPGGSLRLSCAASGFSFSNYGMAWVRQAPGKGLEWVASISTGGGNTYYADSVKGRFTISRDNAKNTLYLQMNSLRAEDTAVYYCTRHDRGGLYWGQGTMVTVSS
VL: DIVMTQSPDSLAVSLGERATINCKSSKSLLHSNGITYVYWYQQKPGQPPKLLIYRMSNLASGVPDRFSGSGSGTDFTLTISSLQAEDVAVYHCGQLLENPYTFGQGTKLEIK
B11: P1AE5754 (antibody, V domains shown)
VH: EVQLVESGGGVVQPGRSLRLSCAASGFSFSNYGMAWVRQAPGKGLEWVASISTGGGNTYYADSVKGRFTISRDNAKNTLYLQMNSLRAEDTAVYYCTRHDRGGLYWGQGTMVTVSS
VL: EIVLTQSPGTLSLSPGERATLSCRASKSLLHSNGITYVYWYQQKPGQAPRLLIYRMSNLASGIPDRFSGSGSGTDFTLTISRLEPEDFAVYHCGQLLENPYTFGQGTKLEIK
B12: P1AE5758 (antibody, V domains shown)
VH: EVQLVESGGGLVQPGGSLRLSCAASGFSFSNYGMAWVRQAPGKGLEWVASISTGGGNTYYRDSVKGRFTISRDNAKNTLYLQMNSLRAEDTAVYYCTRHDRGGLYWGQGTMVTVSS
VL: DIVMTQSPDSLAVSLGERATINCKSSKSLLHSNGITYVYWYQQKPGQPPKLLIYRMSNLASGVPDRFSGSGSGTDFTLTISSLQAEDVAVYHCGQLLENPYTFGQGTKLEIK
B13: P1AE5764 (antibody, V domains shown)
VH: EVQLVESGGGLVQPGGSLRLSCAASGFSFSNYGMAWVRQAPGKGLEWVASISTGGGNTYYADSVKGRFTISRDNAKNTLYLQMNSLRAEDTAVYYCTRHDRGGLYWGQGTMVTVSS
VL: EIVLTQSPGTLSLSPGERATLSCRASKSLLHSNGITYVYWYQQKPGQAPRLLIYRMSNLASGIPDRFSGSGSGTDFTLTISRLEPEDFAVYHCGQLLENPYTFGQGTKLEIK
B14: P1AE5753 (antibody, V domains shown)
VH: EVQLVESGGGVVQPGRSLRLSCAASGFSFSNYGMAWVRQAPGKGLEWVASISTGGGNTYYADSVKGRFTISRDNAKNTLYLQMNSLRAEDTAVYYCTRHDRGGLYWGQGTMVTVSS
VL: DIVMTQSPDSLAVSLGERATINCKSSKSLLHSNGITYVYWYQQKPGQPPKLLIYRMSNLASGVPDRFSGSGSGTDFTLTISSLQAEDVAVYHCGQLLENPYTFGQGTKLEIK
B15: 10B10-TCB (bispecific antibody, human IgG1, kappa, L234A L235A)
light 1: DIQLTQSPHSLSASLGETVSIECLASEGISNYLAWFHQKPGKSPQLLIYYASSLQDGVPSRFSGSGSGTQYSLKISNMQPEDEGVYYCQQGYKYPLTFGSGTKLEIKRTVAAPSVFIFPPSDRKLKSGTASVVCLLNNFYPREAKVQWKVDNALQSGNSQESVTEQDSKDSTYSLSSTLTLSKADYEKHKVYACEVTHQGLSSPVTKSFNRGEC
light 2: EVQLLESGGGLVQPGGSLRLSCAASGFTFSTYAMNWVRQAPGKGLEWVSRIRSKYNNYATYYADSVKGRFTISRDDSKNTLYLQMNSLRAEDTAVYYCVRHGNFGNSYVSWFAYWGQGTLVTVSSASVAAPSVFIFPPSDEQLKSGTASVVCLLNNFYPREAKVQWKVDNALQSGNSQESVTEQDSKDSTYSLSSTLTLSKADYEKHKVYACEVTHQGLSSPVTKSFNRGEC
heavy 1: EVQLVESGGGLVQPGRSMKLSCAASGFTFTNFYMAWVRQAPTKALEWVASINTGGGYTYYRDSVKGRFTVSRDNTRSTLYLQMDSLRSEETATYYCARHLTYYGRYYYFDYWGQGVMVTVSSASTKGPSVFPLAPSSKSTSGGTAALGCLVEDYFPEPVTVSWNSGALTSGVHTFPAVLQSSGLYSLSSVVTVPSSSLGTQTYICNVNHKPSNTKVDEKVEPKSCDKTHTCPPCPAPEAAGGPSVFLFPPKPKDTLMISRTPEVTCVVVDVSHEDPEVKFNWYVDGVEVHNAKTKPREEQYNSTYRVVSVLTVLHQDWLNGKEYKCKVSNKALGAPIEKTISKAKGQPREPQVCTLPPSRDELTKNQVSLSCAVKGFYPSDIAVEWESNGQPENNYKTTPPVLDSDGSFFLVSKLTVDKSRWQQGNVFSCSVMHEALHNHYTQKSLSLSPGK
heavy 2: not shown
B16: B72-TCB (bispecific antibody, human IgG1, kappa, L234A L235A)
heavy 1: not shown
light 1: EVQLVESGGGLVQPGGSLRLSCAASGFTFNTYAMNWVRQAPGKGLEWVARIRSKYNNYATYYAASVKGRFTISRDDSKNSLYLQMNSLKTEDTAVYYCARHGNFGNSYVSWFAYWGQGTLVTVSSASVAAPSVFIFPPSDEQLKSGTASVVCLLNNFYPREAKVQWKVDNALQSGNSQESVTEQDSKDSTYSLSSTLTLSKADYEKHKVYACEVTHQGLSSPVTKSFNRGEC
heavy 2: QVQLVQSGAEVKKPGASVKVSCKASGYSFTGYTMNWVRQAPGQGLEWMGLINPYNSDTNYAQKLQGRVTMTTDTSTSTAYMELRSLRSDDTAVYYCARVALRVALDYWGQGTLVTVSSASTKGPSVFPLAPSSKSTSGGTAALGCLVEDYFPEPVTVSWNSGALTSGVHTFPAVLQSSGLYSLSSVVTVPSSSLGTQTYICNVNHKPSNTKVDEKVEPKSCDKTHTCPPCPAPEAAGGPSVFLFPPKPKDTLMISRTPEVTCVVVDVSHEDPEVKFNWYVDGVEVHNAKTKPREEQYNSTYRVVSVLTVLHQDWLNGKEYKCKVSNKALGAPIEKTISKAKGQPREPQVCTLPPSRDELTKNQVSLSCAVKGFYPSDIAVEWESNGQPENNYKTTPPVLDSDGSFFLVSKLTVDKSRWQQGNVFSCSVMHEALHNHYTQKSLSLSPGK
light 2: DIQMTQSPSSLSASVGDRVTITCKASQNVATHVGWYQQKPGKAPKRLIYSASYRYSGVPSRFSGSGSGTEFTLTISNLQPEDFATYYCQQYNRYPYTFGQGTKLEIKRTVAAPSVFIFPPSDRKLKSGTASVVCLLNNFYPREAKVQWKVDNALQSGNSQESVTEQDSKDSTYSLSSTLTLSKADYEKHKVYACEVTHQGLSSPVTKSFNRGEC

The first assay deals with T1, human GPRC5D (human, UniProt Q9NZD1 1-345). Nature of the assay: cell-based or functional assay.
T1 sequence (Q9NZD1 whole entry): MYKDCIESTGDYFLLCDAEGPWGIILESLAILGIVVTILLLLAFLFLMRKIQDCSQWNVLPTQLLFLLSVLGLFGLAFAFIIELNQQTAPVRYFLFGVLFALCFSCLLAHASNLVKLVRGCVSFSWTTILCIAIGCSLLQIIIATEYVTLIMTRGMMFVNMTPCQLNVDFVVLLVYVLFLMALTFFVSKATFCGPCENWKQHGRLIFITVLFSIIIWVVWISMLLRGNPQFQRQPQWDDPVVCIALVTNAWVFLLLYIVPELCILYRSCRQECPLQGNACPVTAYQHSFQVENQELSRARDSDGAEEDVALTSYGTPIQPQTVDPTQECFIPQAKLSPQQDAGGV
In the case of B1, the “CAR-J2 EC50” value amounted to 0.00265 µg/mL.

With B2, the “CAR-J2 EC50” value amounted to 0.0842 µg/mL.

As to B3, the “CAR-J2 EC50” value stood at 0.583 µg/mL.

On to B4, for which the “CAR-J2 EC50” value was 0.0619 µg/mL.

As to B5, the “CAR-J2 EC50” value is 0.0826 µg/mL.

With B6, the “CAR-J2 EC50” value was 0.397 µg/mL.

In the case of B7, the “CAR-J2 EC50” value was determined as 0.183 µg/mL.

As for B8, the “CAR-J2 EC50” value came out at 0.00295 µg/mL.

As to B9, the “CAR-J2 EC50” value came to 0.0157 µg/mL.

As for B10, the “CAR-J2 EC50” value amounted to 0.00547 µg/mL.

Take B11: the “CAR-J2 EC50” value worked out at 0.00889 µg/mL.

For B12, the “CAR-J2 EC50” value came to 0.19 µg/mL.

Regarding B13, the “CAR-J2 EC50” value worked out at 0.0782 µg/mL.

As for B14, the “CAR-J2 EC50” value is 0.03 µg/mL.

The target of the next assay is T1, human GPRC5D. Nature of the assay: cell-based or functional assay. This is another data set of the same source.
For the molecule B15, the “EC50 of in vitro killing, AMO-1” value amounted to 0.084 nM; the “EC50 of in vitro killing, EJM” value is 0.079 nM; the “EC50 of in vitro killing, L363” value came out at 0.034 nM; the “EC50 of in vitro killing, MOLP-2” value is 0.16 nM. Moreover, the “EC50 of in vitro killing, NCI-H929” value was 0.056 nM; the “EC50 of in vitro killing, OPM-2” value turned out to be 0.028 nM; the “EC50 of in vitro killing, RPMI” value was 0.965 nM.

For the molecule B16, the “EC50 of in vitro killing, AMO-1” value came to 0.109 nM; the “EC50 of in vitro killing, EJM” value turned out to be 0.06 nM; the “EC50 of in vitro killing, L363” value was determined as 0.058 nM; the “EC50 of in vitro killing, MOLP-2” value came out at 0.124 nM. The “EC50 of in vitro killing, NCI-H929” value came out at 0.058 nM; the “EC50 of in vitro killing, OPM-2” value stood at 0.171 nM; the “EC50 of in vitro killing, RPMI” value worked out at 0.193 nM.
